# The supplement of paper PMC9112550, “Optimization of the antimicrobial peptide Bac7 by deep mutational scanning” (BMC Biology, 2022)
# System: Escherichia coli TOP10
# Assay: shrunken log2 fold change of peptide-encoding DNA abundance (4.5 h post-induction vs induction); higher = less antimicrobial activity (less host growth inhibition)
# Conditions: time post-induction: 4.5 h; library: site-saturation at positions 5, 18, 19, 20
# 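Further: peptides expressed intracellularly from a pBAD plasmid library in pooled LB shake-flask culture, induced with 0.3% L-arabinose, DNA abundance read by NGS, three biological replicates, DESeq2 with apeglm shrinkage.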
row,Sequence,shrunken log2 fold change
1,RRIRWRPPRLPRPRPRPLSMPRP,-0.159
2,RRIRPRPPRLPRPRPRPNDLPRP,-0.111
3,RRIRFRPPRLPRPRPRPIVKPRP,-0.395
4,RRIRQRPPRLPRPRPRPRHMPRP,-0.316
5,RRIRWRPPRLPRPRPRPKIMPRP,-0.198
6,RRIRLRPPRLPRPRPRPNYQPRP,-0.773
7,RRIRIRPPRLPRPRPRPSDHPRP,-0.91
8,RRIRVRPPRLPRPRPRPNPIPRP,0.129
9,RRIRQRPPRLPRPRPRPTRFPRP,0.04
10,RRIRTRPPRLPRPRPRPPMSPRP,-0.0702
11,RRIRTRPPRLPRPRPRPTVSPRP,0.077
12,RRIRCRPPRLPRPRPRPANYPRP,-0.342
13,RRIRKRPPRLPRPRPRPANLPRP,0.299
14,RRIRHRPPRLPRPRPRPMNWPRP,-0.209
15,RRIRTRPPRLPRPRPRPKGAPRP,0.351
16,RRIRMRPPRLPRPRPRPQQTPRP,1.14
17,RRIRIRPPRLPRPRPRPNDHPRP,-0.569
18,RRIRPRPPRLPRPRPRPCEEPRP,0.205
19,RRIRARPPRLPRPRPRPLQKPRP,0.586
20,RRIRYRPPRLPRPRPRPRMKPRP,-0.241
21,RRIRYRPPRLPRPRPRPMCDPRP,-0.987
22,RRIRIRPPRLPRPRPRPIAQPRP,-0.373
23,RRIRFRPPRLPRPRPRPRHDPRP,0.0736
24,RRIRSRPPRLPRPRPRPACPPRP,0.413
25,RRIRDRPPRLPRPRPRPQMKPRP,-0.166

row,Sequence,shrunken log2 fold change
1,RRIRDRPPRLPRPRPRPWKFPRP,0.0062
2,RRIRTRPPRLPRPRPRPISSPRP,-0.0114
3,RRIRDRPPRLPRPRPRPAMCPRP,0.531
4,RRIRRRPPRLPRPRPRPIKDPRP,-0.0902
5,RRIRYRPPRLPRPRPRPNVMPRP,0.0307
6,RRIRGRPPRLPRPRPRPHKTPRP,-0.0617
7,RRIRSRPPRLPRPRPRPKTDPRP,0.124
8,RRIRVRPPRLPRPRPRPWTGPRP,-0.0167
9,RRIRDRPPRLPRPRPRPSAYPRP,0.0641
10,RRIRMRPPRLPRPRPRPNHYPRP,-0.352
11,RRIRERPPRLPRPRPRPPPIPRP,0.267
12,RRIRRRPPRLPRPRPRPFGSPRP,-0.0013
13,RRIRWRPPRLPRPRPRPENCPRP,0.138
14,RRIRVRPPRLPRPRPRPQWFPRP,-0.134
15,RRIRNRPPRLPRPRPRPKVEPRP,0.039
16,RRIRERPPRLPRPRPRPAKEPRP,0.0889
17,RRIRYRPPRLPRPRPRPCPVPRP,-0.143
18,RRIRNRPPRLPRPRPRPAHHPRP,-0.0626
19,RRIRWRPPRLPRPRPRPAMTPRP,0.299
20,RRIRDRPPRLPRPRPRPRQLPRP,0.185
21,RRIRPRPPRLPRPRPRPQYDPRP,-0.638
22,RRIRLRPPRLPRPRPRPDGIPRP,-0.0391
23,RRIRYRPPRLPRPRPRPLPKPRP,0.116
24,RRIRHRPPRLPRPRPRPAKMPRP,0.0344
25,RRIRYRPPRLPRPRPRPQLQPRP,-0.137

row,Sequence,shrunken log2 fold change
1,RRIRHRPPRLPRPRPRPQLSPRP,-0.000101
2,RRIRSRPPRLPRPRPRPGTDPRP,-0.0659
3,RRIRKRPPRLPRPRPRPALMPRP,0.32
4,RRIRQRPPRLPRPRPRPNAPPRP,0.105
5,RRIRPRPPRLPRPRPRPPAHPRP,0.466
6,RRIRFRPPRLPRPRPRPFRKPRP,-0.122
7,RRIRERPPRLPRPRPRPPQDPRP,0.113
8,RRIRYRPPRLPRPRPRPWKHPRP,-0.0695
9,RRIRIRPPRLPRPRPRPMIFPRP,-0.266
10,RRIRDRPPRLPRPRPRPTGQPRP,-0.0665
11,RRIRWRPPRLPRPRPRPQPCPRP,0.179
12,RRIRYRPPRLPRPRPRPQNRPRP,-0.0755
13,RRIRGRPPRLPRPRPRPQPQPRP,0.706
14,RRIRRRPPRLPRPRPRPTNHPRP,-0.0627
15,RRIRNRPPRLPRPRPRPDMHPRP,-0.0698
16,RRIRFRPPRLPRPRPRPKMIPRP,-0.618
17,RRIRKRPPRLPRPRPRPCAEPRP,0.951
18,RRIRNRPPRLPRPRPRPFAHPRP,-0.00369
19,RRIRLRPPRLPRPRPRPNPQPRP,-0.2
20,RRIRWRPPRLPRPRPRPRPAPRP,0.865
21,RRIRGRPPRLPRPRPRPHCLPRP,0.196
22,RRIRCRPPRLPRPRPRPRVPPRP,-0.0115
23,RRIRKRPPRLPRPRPRPHMKPRP,-0.0471
24,RRIRCRPPRLPRPRPRPLYRPRP,-1.14
25,RRIRARPPRLPRPRPRPEEGPRP,0.457

row,Sequence,shrunken log2 fold change
1,RRIRHRPPRLPRPRPRPSAKPRP,-0.324
2,RRIRTRPPRLPRPRPRPRCWPRP,0.386
3,RRIRWRPPRLPRPRPRPSWKPRP,-0.0536
4,RRIRDRPPRLPRPRPRPYWEPRP,-0.0419
5,RRIRRRPPRLPRPRPRPEGAPRP,1.05
6,RRIRNRPPRLPRPRPRPWESPRP,0.291
7,RRIRKRPPRLPRPRPRPVNLPRP,-0.0889
8,RRIRHRPPRLPRPRPRPHIHPRP,-0.328
9,RRIRFRPPRLPRPRPRPYQQPRP,0.00163
10,RRIRGRPPRLPRPRPRPQLVPRP,0.0859
11,RRIRKRPPRLPRPRPRPNTGPRP,0.382
12,RRIRWRPPRLPRPRPRPAFAPRP,1.23
13,RRIRCRPPRLPRPRPRPIEMPRP,-0.0735
14,RRIRLRPPRLPRPRPRPTGWPRP,0.303
15,RRIRNRPPRLPRPRPRPGYSPRP,-0.42
16,RRIRIRPPRLPRPRPRPFAAPRP,-0.258
17,RRIRNRPPRLPRPRPRPEQPPRP,0.0618
18,RRIRLRPPRLPRPRPRPRIEPRP,-0.0339
19,RRIRMRPPRLPRPRPRPWEPPRP,0.127
20,RRIRRRPPRLPRPRPRPRTAPRP,0.458
21,RRIRTRPPRLPRPRPRPYSRPRP,0.0299
22,RRIRYRPPRLPRPRPRPNYAPRP,-0.223
23,RRIRQRPPRLPRPRPRPYSLPRP,-0.197
24,RRIRIRPPRLPRPRPRPGDCPRP,-0.185
25,RRIRWRPPRLPRPRPRPIMAPRP,0.14

row,Sequence,shrunken log2 fold change
1,RRIRNRPPRLPRPRPRPRHDPRP,0.0353
2,RRIRSRPPRLPRPRPRPSMKPRP,-0.59
3,RRIRQRPPRLPRPRPRPLPAPRP,0.214
4,RRIRQRPPRLPRPRPRPHCYPRP,-0.0282
5,RRIRLRPPRLPRPRPRPHGMPRP,-0.177
6,RRIRIRPPRLPRPRPRPSNTPRP,-0.515
7,RRIRIRPPRLPRPRPRPCIRPRP,-0.0379
8,RRIRSRPPRLPRPRPRPMFTPRP,-0.374
9,RRIRHRPPRLPRPRPRPSIMPRP,-0.423
10,RRIRRRPPRLPRPRPRPKPKPRP,0.273
11,RRIRPRPPRLPRPRPRPIGVPRP,0.108
12,RRIRCRPPRLPRPRPRPCSSPRP,0.0866
13,RRIRTRPPRLPRPRPRPLINPRP,-0.692
14,RRIRWRPPRLPRPRPRPEHCPRP,0.177
15,RRIRYRPPRLPRPRPRPWALPRP,-0.355
16,RRIRQRPPRLPRPRPRPQSQPRP,-0.159
17,RRIRCRPPRLPRPRPRPAFSPRP,-0.252
18,RRIRERPPRLPRPRPRPMVHPRP,-0.281
19,RRIRVRPPRLPRPRPRPVCDPRP,0.0894
20,RRIRSRPPRLPRPRPRPIYIPRP,-0.776
21,RRIRVRPPRLPRPRPRPDMKPRP,0.0218
22,RRIRTRPPRLPRPRPRPASWPRP,0.733
23,RRIRCRPPRLPRPRPRPPYIPRP,-0.305
24,RRIRLRPPRLPRPRPRPHEPPRP,-0.0213
25,RRIRDRPPRLPRPRPRPFADPRP,-0.0225
